From article PMC11218781, “The heat shock factor 20-HSF4-cellulose synthase A2 module regulates heat stress tolerance in maize”

What was measured:
ZmHSF20 [1] = molecular target: T1, ZmHSF20 (Zea mays, UniProt K7U5Y9 1-318); assay: EMSA; unlabeled probe competes; EMSA/Gel-Shift buffer (Beyotime GS009 kit), 4 °C, 1 h; salt and pH not stated; conditions: protein: recombinant; tags: His (pET28a); chain copies: 3; label: biotin; blunt
ZmHSF20 [2] = molecular target: T1, ZmHSF20; assay: EMSA; EMSA/Gel-Shift buffer (Beyotime GS009 kit), 4 °C, 1 h; salt and pH not stated; conditions: protein: recombinant; tags: His (pET28a); chain copies: 3; label: biotin; 5' overhang 1 nt on strand 1 as printed (reverse strand lacks the final C)

T1 sequence (K7U5Y9 entry or part of it): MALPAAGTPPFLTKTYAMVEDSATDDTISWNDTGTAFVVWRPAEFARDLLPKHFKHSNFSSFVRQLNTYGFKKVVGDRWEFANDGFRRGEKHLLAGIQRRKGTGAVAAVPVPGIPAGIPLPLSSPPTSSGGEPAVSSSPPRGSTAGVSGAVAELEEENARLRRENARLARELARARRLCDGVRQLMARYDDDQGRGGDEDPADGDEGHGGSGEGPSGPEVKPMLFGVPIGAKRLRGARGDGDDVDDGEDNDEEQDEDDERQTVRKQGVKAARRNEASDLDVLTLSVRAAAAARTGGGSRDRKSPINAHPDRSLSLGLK

Row | Binder | binding result (ZmHSF20 [1]) | binding result (ZmHSF20 [2])
1 | ZmCesA2-P2 probe (dsDNA) DNA 1: ATTTACTACTGAAATTTATAAGGATTTGCA DNA 2: TGCAAATCCTTATAAATTTCAGTAGTAAAT | binds | –
2 | ZmHSF4-P1 probe (dsDNA) DNA 1: GCCTTCCAGAACCTTCCTTTCCCGAAATAG DNA 2: CTATTTCGGGAAAGGAAGGTTCTGGAAGG | – | binds
